Legend:
[1] = target: T1, human EGFRvIII-hFc protein (human, UniProt P00533 25-645); assay: ELISA, EGFRvIII-hFc coated
T1 construct: extracellular domain; also called immunogen A; hFc-tagged EGFRvIII protein; not shown: human IgG Fc fragment (hFc) of the pCpC vector
Experimental: The purified humanized anti-EGFRvIII antibody obtained in example 12 is reacted with a human EGFRvIII-hFc protein.
The purified immunogen A (EGFRvIII-hFc) obtained in example 1 (for the preparation method, see step (I) in example 1) is diluted with PBS to a final concentration of 1.0 μg/mL, and then added to a 96-well ELISA plate at 100 μl/well. The plate is sealed with a plastic film and incubated at 4° C. overnight. The next day, the plate is washed twice with a plate washing solution [PBS+0.01% (v/v) Tween20], and added with a blocking solution [PBS+0.01% (v/v) Tween20+1% (w/w) BSA] for blocking 2 hours at room temperature. […] The plate is incubated for 2 hours at 37° C., and then washed 3 times with the plate washing solution [PBS+0.01% (v/v) Tween20]. The plate is added with an HRP (horseradish peroxidase) labeled secondary antibody (purchased from Sigma), incubated at 37° C. for 2 hours, and then washed 3 times with the plate washing solution [PBS+0.01% (v/v) Tween20]. The plate is added with 100 μl of TMB substrate/well, incubated for 30 minutes at room temperature, and then added with 100 μl of stopping solution (1.0N HCl)/well. A450 nm value is read using an ELISA plate reader (SpectraMax 384plus, purchased from Molecular Device).

[2] = target: T2, human EGFRvIII protein on the cell surface (human, UniProt P00533 25-1210); assay: FACS on U87MG-EGFRvIII cells
T2 construct: whole, on cells; the cell line is named under assay; also called hEGFRvIII; U87MG-hEGFRvIII
Experimental: The preparation of U87MG-EGFRvIII required for FACS detection is as described in the preparation of the immunogen B in example 1. Normal human primary hepatocytes are purchased from BioreclamationIVT, and A431 tumor cells are purchased from ATCC. The recovered hepatocytes are directly used for FACS detection, and the recovered U87MG-EGFRvIII and A431 cells are subjected to an expanded culture to 90% confluence in a T-75 cell culture flask; the medium is sucked out, and the cells are washed twice with a HBSS buffer (Hanks Balanced Salt Solution) (purchased from Invitrogen), and then treated with an enzyme-free cell dissociation solution (Versene solution: purchased from Life Technology) and collected. The cells are washed twice with the HBSS buffer and are counted, and then the cells are diluted with the HBSS buffer to 2×10⁶ cells/ml, added with 1% goat serum blocking solution, with the percentage being the mass percentage, and incubated on ice for 30 minutes, and then centrifugally washed twice with the HBSS buffer. The collected cells are resuspended to 2×10⁶ cells/mL with an FACS buffer (HBSS+2% FBS, with the percentage being the volume percentage), added to a 96-well FACS reaction plate at 100 μL/well, then added with 100 μL/well of the purified EGFRvIII antibody (samples to be tested) obtained in example 12, and incubated on ice for 2 hours. The plate is centrifugally washed twice with the FACS buffer, added with 100 μL/well of a 1:1000 diluted fluorescence (Alexa 488) labeled secondary antibody (purchased from Invitrogen), and incubated on ice for 1 hour. The plate is centrifugally washed 3 times with the FACS buffer, added with 100 μL/well of a fixing solution [4% (v/v) paraformaldehyde] to resuspend the cells, and centrifugally washed twice with the FACS buffer after 10 minutes. The cells are resuspended in 100 μL of the FACS buffer, and the results are detected and analyzed by FACS (FACS Calibur, purchased from BD). Data analysis is performed by using the software (CellQuest) to obtain the mean fluorescence intensity (MFI) of the cells. Data is further analyzed by using the software (GraphPad Prism5) to perform data fitting and calculate EC50.

Binder	EC50 [1]	Maximum OD450 value [1]	EC50 [2]	Maximum mean fluorescence intensity [2]
Humanized antibody h63A10A7-17 (antibody, human IgG1, V domains shown, also called VH-g4/VL-g4) VH: QVQLVQSGAEVKKPGASVKVSCKASGYTFISFTMHWVKQRPGQGLEWIGYINPNSGYTKYNQKFKDKATLTRDTSTSTVYMELSSLRSEDTAVYYCTRGGGRGFAYWGQGTLVTVSS VL: DILMTQSPSSLSASVGDRVTITCHASQDINSNIGWLQQKPGKSFKALIYHGTNLEDGVPSRFSGSGSGADYTLTISSLQPEDFATYYCVQYAQFPFTFGQGTKLEIK	0.01 nM	3.71 OD450		
Humanized antibody h63A10A7-24 (antibody, human IgG1, V domains shown, also called VH-g4/VL-g6) VH: QVQLVQSGAEVKKPGASVKVSCKASGYTFISFTMHWVKQRPGQGLEWIGYINPNSGYTKYNQKFKDKATLTRDTSTSTVYMELSSLRSEDTAVYYCTRGGGRGFAYWGQGTLVTVSS VL: DILMTQSPSSLSASVGDRVTITCHASQDINSNIGWLQQKPGKSFKALIYHGTNLEDGVPSRFSGSGSGTDYTLTISSLQPEDFATYYCVQYAQFPFTFGQGTKLEIK	0.15 nM	3.67 OD450	1.83 nM	24200 MFI
Humanized antibody h63A10A7-26 (antibody, human IgG1, V domains shown, also called VH-g4/VL-g8) VH: QVQLVQSGAEVKKPGASVKVSCKASGYTFISFTMHWVKQRPGQGLEWIGYINPNSGYTKYNQKFKDKATLTRDTSTSTVYMELSSLRSEDTAVYYCTRGGGRGFAYWGQGTLVTVSS VL: DILMTQSPSSLSASVGDRVTITCHASQDINSNIGWYQQKPGKSFKALIYHGTNLEDGVPSRFSGSGSGADFTLTISSLQPEDFATYYCVQYAQFPFTFGQGTKLEIK	0.16 nM	3.65 OD450	1.79 nM	23700 MFI
Humanized antibody h63A10A7-38 (antibody, human IgG1, V domains shown, also called VH-g7/VL-g3) VH: QVQLVQSGAEVKKPGASVKVSCKASGYTFISFTMHWVRQAPGQGLEWIGYINPNSGYTKYNQKFKDKATLTRDTSTSTVYMELSSLRSEDTAVYYCTRGGGRGFAYWGQGTLVTVSS VL: DIQMTQSPSSLSASVGDRVTITCHASQDINSNIGWLQQKPGKSFKALIYHGTNLEDGVPSRFSGSGSGADYTLTISSLQPEDFATYYCVQYAQFPFTFGQGTKLEIK	0.22 nM	3.7 OD450	3.03 nM	10700 MFI
Humanized antibody h63A10A7-23 (antibody, human IgG1, V domains shown, also called VH-g4/VL-g5) VH: QVQLVQSGAEVKKPGASVKVSCKASGYTFISFTMHWVKQRPGQGLEWIGYINPNSGYTKYNQKFKDKATLTRDTSTSTVYMELSSLRSEDTAVYYCTRGGGRGFAYWGQGTLVTVSS VL: DILMTQSPSSLSASVGDRVTITCHASQDINSNIGWLQQKPGKAPKALIYHGTNLEDGVPSRFSGSGSGADYTLTISSLQPEDFATYYCVQYAQFPFTFGQGTKLEIK	0.33 nM	3.47 OD450	4.62 nM	20200 MFI
Humanized antibody h63A10A7-21 (antibody, human IgG1, V domains shown, also called VH-g8/VL-g4) VH: QVQLVQSGAEVKKPGASVKVSCKASGYTFISFTMHWVKQRPGQGLEWIGYINPNSGYTKYNQKFKDRVTLTRDTSTSTVYMELSSLRSEDTAVYYCTRGGGRGFAYWGQGTLVTVSS VL: DILMTQSPSSLSASVGDRVTITCHASQDINSNIGWLQQKPGKSFKALIYHGTNLEDGVPSRFSGSGSGADYTLTISSLQPEDFATYYCVQYAQFPFTFGQGTKLEIK	0.17 nM	3.6 OD450	2.34 nM	23500 MFI
Humanized antibody h63A10A7-20 (antibody, human IgG1, V domains shown, also called VH-g7/VL-g4) VH: QVQLVQSGAEVKKPGASVKVSCKASGYTFISFTMHWVRQAPGQGLEWIGYINPNSGYTKYNQKFKDKATLTRDTSTSTVYMELSSLRSEDTAVYYCTRGGGRGFAYWGQGTLVTVSS VL: DILMTQSPSSLSASVGDRVTITCHASQDINSNIGWLQQKPGKSFKALIYHGTNLEDGVPSRFSGSGSGADYTLTISSLQPEDFATYYCVQYAQFPFTFGQGTKLEIK	0.18 nM	3.55 OD450	1.56 nM	22600 MFI
Humanized antibody h63A10A7-37 (antibody, human IgG1, V domains shown, also called VH-g6/VL-g3) VH: QVQLVQSGAEVKKPGASVKVSCKASGYTFISFTMHWVKQRPGQGLEWMGYINPNSGYTKYNQKFKDKATMTRDTSTSTVYMELSSLRSEDTAVYYCTRGGGRGFAYWGQGTLVTVSS VL: DIQMTQSPSSLSASVGDRVTITCHASQDINSNIGWLQQKPGKSFKALIYHGTNLEDGVPSRFSGSGSGADYTLTISSLQPEDFATYYCVQYAQFPFTFGQGTKLEIK	0.28 nM	3.6 OD450	5.35 nM	10200 MFI
Humanized antibody h63A10A7-22 (antibody, human IgG1, V domains shown, also called VH-g4/VL-g3) VH: QVQLVQSGAEVKKPGASVKVSCKASGYTFISFTMHWVKQRPGQGLEWIGYINPNSGYTKYNQKFKDKATLTRDTSTSTVYMELSSLRSEDTAVYYCTRGGGRGFAYWGQGTLVTVSS VL: DIQMTQSPSSLSASVGDRVTITCHASQDINSNIGWLQQKPGKSFKALIYHGTNLEDGVPSRFSGSGSGADYTLTISSLQPEDFATYYCVQYAQFPFTFGQGTKLEIK	0.15 nM	3.57 OD450	1.58 nM	23500 MFI
Humanized antibody h63A10A7-19 (antibody, human IgG1, V domains shown, also called VH-g6/VL-g4) VH: QVQLVQSGAEVKKPGASVKVSCKASGYTFISFTMHWVKQRPGQGLEWMGYINPNSGYTKYNQKFKDKATMTRDTSTSTVYMELSSLRSEDTAVYYCTRGGGRGFAYWGQGTLVTVSS VL: DILMTQSPSSLSASVGDRVTITCHASQDINSNIGWLQQKPGKSFKALIYHGTNLEDGVPSRFSGSGSGADYTLTISSLQPEDFATYYCVQYAQFPFTFGQGTKLEIK	0.17 nM	3.63 OD450	3.27 nM	21100 MFI
Humanized antibody h63A10A7-18 (antibody, human IgG1, V domains shown, also called VH-g5/VL-g4) VH: QVQLVQSGAEVKKPGASVKVSCKASGYTFISFTMHWVKQRPGQGLEWIGYINPNSGYTKYNQKFKDKATLTADQSTSTAYMELSSLRSEDTAVYYCTRGGGRGFAYWGQGTLVTVSS VL: DILMTQSPSSLSASVGDRVTITCHASQDINSNIGWLQQKPGKSFKALIYHGTNLEDGVPSRFSGSGSGADYTLTISSLQPEDFATYYCVQYAQFPFTFGQGTKLEIK	0.01 nM	3.71 OD450		
Humanized antibody h63A10A7-39 (antibody, human IgG1, V domains shown, also called VH-g8/VL-g3) VH: QVQLVQSGAEVKKPGASVKVSCKASGYTFISFTMHWVKQRPGQGLEWIGYINPNSGYTKYNQKFKDRVTLTRDTSTSTVYMELSSLRSEDTAVYYCTRGGGRGFAYWGQGTLVTVSS VL: DIQMTQSPSSLSASVGDRVTITCHASQDINSNIGWLQQKPGKSFKALIYHGTNLEDGVPSRFSGSGSGADYTLTISSLQPEDFATYYCVQYAQFPFTFGQGTKLEIK	0.24 nM	3.6 OD450	4.1 nM	10700 MFI
Humanized antibody h63A10A7-25 (antibody, human IgG1, V domains shown, also called VH-g4/VL-g7) VH: QVQLVQSGAEVKKPGASVKVSCKASGYTFISFTMHWVKQRPGQGLEWIGYINPNSGYTKYNQKFKDKATLTRDTSTSTVYMELSSLRSEDTAVYYCTRGGGRGFAYWGQGTLVTVSS VL: DILMTQSPSSLSASVGDRVTITCHASQDINSNIGWYQQKPGKSFKALIYHGTNLEDGVPSRFSGSGSGADYTLTISSLQPEDFATYYCVQYAQFPFTFGQGTKLEIK	0.17 nM	3.61 OD450	1.32 nM	24700 MFI
Humanized antibody h75G7C6-10 (antibody, human IgG1, V domains shown, also called VH-g1/VL-g1) VH: QVQLVQSGAEVKKPGASVKVSCKASGYTFTDYNMDWVRQAPGQGLEWIGDINPNNADTIYNQKFKGRVTLTVDTSTSTVYMELSSLRSEDTAVYYCARGDYDGYYPVYYAMDYWGQGTTVTVSS VL: ENVLTQSPATLSLSPGERATLSCRASSSVSSSYLHWYQQKPGQAPRLLIFSTSNLAAGIPARFSGSGSGTDYTLTISSLEPEDFAVYYCQQYSGYPLTFGGGTKVEIK	0.66 nM	2.98 OD450	5.32 nM	18000 MFI

— patent US20210032351A1 (XDCEXPLORER SHANGHAI, published 2021)
